Experimental findings from paper PMC12507662 (Nature, 2025) are described below.

In this test the target is postfusion gB (ectodomain of wild type) (herpes simplex virus 1 (HSV-1), UniProt A1Z0P7). The test can be described thus: grating-coupled interferometry; gB immobilised by C-terminal Twin-Strep-tag on Strep-Tactin XT chip (400 pg mm^-2); 25 °C; 20 mM HEPES pH 8.0, 300 mM NaCl; waveRAPID tight binder protocol, 200 nM Nb1_gbHSV, regeneration with 3 M GuHCl. Conditions: both partners purified.

B1: Nb1_gbHSV (VHH)
VHH: QVQLVESGGGSVQPGGSLRLSCAASASGRLSMSGALGWYRQVQGKSRELVATITDRSSTNYADSVKGRFTISIDDAENTMYLQMNSLKPEDTGVYYCNARWRGMNVWGKGTRVTVSS
notes: alpaca VHH from an immune library; Unlabelled form used for grating-coupled interferometry, cryo-EM with stabilized HSV-1 gB and plaque reduction; also called the nanobody; neutralizing nanobody; source: E. coli SHuffle Express, cytoplasmic, purified (Ni2+ chelate column, eluted by cleaving the tag with Ulp1p)
As for B1, the binding result is “no binding (tested: 200 nM)”.
